Our source for the IC50 values is US20160333065A1 (ACADEMISCH ZIEKENHUIS LEIDEN H O D N LUMC, published 2016).

In assay [1] the target is T1, HLA-B35 (B*3501) (human).
T1 construct: MHC class I molecule on mild-acid-stripped EBV-transformed B cells (BVR)
Kind of assay: cellular competition binding assay on acid-stripped B-LCL BVR, flow cytometry; competitor Fl-labeled reference peptide NPDIVC(Fl)YQY. In general terms: In flow cytometry, cells or beads pass a laser one at a time.

The target in assay [2] is T2, HLA-A1 (A*0101) (human).
T2 construct: MHC class I molecule on mild-acid-stripped EBV-transformed B cells (CAA)
Kind of assay: cellular competition binding assay on acid-stripped B-LCL CAA, flow cytometry; competitor Fl-labeled reference peptide YLEPAC(Fl)AKY.

The target of assay [3] is T3, HLA-B60 (B*4001) (human).
T3 construct: HLA class I on acid-stripped EBV-transformed B cells (B-LCL)
Kind of assay: competition vs KESTC(FI)HLVL on stripped B-LCL, FACS.

For assay [4], the target named is T4, HLA-B62 (B*1501) (human).
T4 construct: HLA class I on acid-stripped EBV-transformed B cells (B-LCL)
Kind of assay: competition vs YLGEFSC(FI)TY on stripped B-LCL, FACS.

Assay [5] deals with T5, HLA-B8 (B*0801) (human).
T5 construct: MHC class I molecule on mild-acid-stripped EBV-transformed B cells (Vavy)
Kind of assay: cellular competition binding assay on acid-stripped B-LCL Vavy, flow cytometry; competitor Fl-labeled reference peptide FLRGRAC(Fl)GL.

The target in assay [6] is T6, HLA-A3 (A*0301) (human).
T6 construct: MHC class I molecule on mild-acid-stripped EBV-transformed B cells (EKR)
Kind of assay: cellular competition binding assay on acid-stripped B-LCL EKR, flow cytometry; competitor Fl-labeled reference peptide KVFPC(Fl)ALINK.

The target in assay [7] is T7, HLA-B8 (B*0801) (human).
T7 construct: HLA class I on acid-stripped EBV-transformed B cells (B-LCL)
Kind of assay: competition vs FLRGRAC(FI)GL on stripped B-LCL, FACS.

Assay [8] has as its target T8, HLA-B60 (B*4001) (human).
T8 construct: MHC class I molecule on mild-acid-stripped EBV-transformed B cells (DKB)
Kind of assay: cellular competition binding assay on acid-stripped B-LCL DKB, flow cytometry; competitor Fl-labeled reference peptide KESTC(Fl)HLVL.

Assay [9] concerns the target T9, HLA-B62 (B*1501) (human).
T9 construct: MHC class I molecule on mild-acid-stripped EBV-transformed B cells (BSM)
Kind of assay: cellular competition binding assay on acid-stripped B-LCL BSM, flow cytometry; competitor Fl-labeled reference peptide YLGEFSC(Fl)TY.

For assay [10], the target named is T10, HLA-B61 (B*4002) (human).
T10 construct: HLA class I on acid-stripped EBV-transformed B cells (B-LCL)
Kind of assay: competition vs GEFGGC(FI)GSV on stripped B-LCL, FACS.

Assay [11] deals with T11, HLA-B7 (B*0702) (human).
T11 construct: HLA class I on acid-stripped EBV-transformed B cells (B-LCL)
Kind of assay: competition vs APAPAPC(FI)WPL on stripped B-LCL, FACS.

The target in assay [12] is T12, HLA-B7 (B*0702) (human).
T12 construct: Acid-stripped B-LCL
Kind of assay: cell competition vs APAPAPC(FI)WPL, stripped JY B-LCL, FACS.

Assay [13] concerns the target T13, HLA-B8 (B*0801) (human).
T13 construct: Acid-stripped B-LCL
Kind of assay: cell competition vs FLRGRAC(FI)GL, stripped Vavy B-LCL, FACS.

Some results are limits rather than exact numbers.

One may read the IC50 as the concentration at which inhibition is half-maximal. A lower IC50 goes with inhibition by little substance.

Turning to EPILCPCFM [PRAME 499-507 EPILCPCFM], the half-maximal inhibitory concentration (IC50) in assay [1] turned out to be 320 nM. This lies in the sub-micromolar range. In turn, LSNLTHVLY [PRAME 433-441 …] showed a half-maximal inhibitory concentration (IC50) in [2] of less than 1000 nM. For the molecule KDEALAIAAL [PRAME 36-45 KDEALAIAAL], in [3], the concentration for half-maximal inhibition (IC50) was found to be 2910 nM. For GQHLHLETF [PRAME 89-97 GQHLHLETF], in [4], the IC50 was 2390 nM.

GTLHLERLAY [PRAME 453-462 GTLHLERLAY]: the IC50 in assay [2] is 2000 nM. That is a single-digit micromolar value. In the case of YLHARLREL [PRAME 462-470 YLHARLREL], the IC50 in [5] is less than 1000 nM. In turn, RLAYLHARLR [PRAME 459-468 RLAYLHARLR] gave an IC50 in assay [6] of 1000 nM. For the molecule MINLRRLL [PRAME 259-266 MINLRRLL], the IC50 in assay [7] was less than 1000 nM. Regarding ALYVDSLFF [PRAME 300-308 ALYVDSLFF], the IC50 in assay [4] was less than 1000 nM. With YEDIHGTLHL [PRAME 448-457 YEDIHGTLHL], the IC50 in assay [8] is less than 1000 nM. As for LQHLIGLSNL [PRAME 427-436 LQHLIGLSNL], the IC50 in assay [4] is 2410 nM.

VLYPVPLESY [PRAME 439-448 VLYPVPLESY] gave an IC50 in assay [9] of 1660 nM.

LETFKAVL [PRAME 94-101 LETFKAVL]: the half-maximal inhibitory concentration (IC50) in assay [10] was less than 1000 nM. As for DEALAIAAL [PRAME 37-45 DEALAIAAL], the concentration for half-maximal inhibition (IC50) is less than 1000 nM in assay [10] and 1550 nM in assay [3]. With RPRRWKLQVL [PRAME 113-122 RPRRWKLQVL], the IC50 in assay [7] and in [11] was less than 1000 nM each time. INLRRLLL [PRAME 260-267 INLRRLLL] showed a half-maximal inhibitory concentration (IC50) in assay [7] of less than 1000 nM. Regarding QMINLRRLLL [PRAME 258-267 QMINLRRLLL], the IC50 in assay [7] worked out at 1670 nM. Turning to RELFPPLFM [PRAME 50-58 RELFPPLFM], the results for the half-maximal inhibitory concentration (IC50) in assay [10] and in assay [3] were less than 1000 nM and 1480 nM, respectively. In [10], RELFPPLFMA [PRAME 50-59 RELFPPLFMA] gave a concentration for half-maximal inhibition (IC50) of less than 1000 nM.

As to RPRRWKLQVL [PRAME peptide RPRRWKLQVL], the IC50 in assay [12] and in assay [13] was less than 1000 nM in each case. LLRHVMNPL [PRAME 316-324 LLRHVMNPL] came in with an IC50 in [4] of 2560 nM.
